Assay results from patent US20200397816A1, “METHODS TO TREAT INFLAMMATORY AND SMOOTH MUSCLE CELL PROLIFERATION DISORDERS” (THE TRUSTEES OF INDIANA UNIVERSITY, priority 2019, published 2020).
Entries after “also recorded” stand apart in the source; their conditions may differ.

Experiments:
EGR1 = EGR1 protein western blot and immunofluorescence in hPASMC; assay type: cell-based, human; details: SMCs
Description: (§1) RAW 264.7 (ATCC) mouse macrophages and Human Embryonic Kidney (HEK) 293T cells were cultured in DMEM media with 10% fetal bovine serum […] and glutamine HEPES buffer and beta-mercaptoethanol were added to the growth medium used for RAW 264.7 macrophages. Primary human pulmonary artery smooth muscle cells (hPASMC) purchased from Lonza (Walkersville, Md.) were cultured in complete growth medium containing smooth muscle growth media-2 (SmGM-2) with 10% FBS and growth factors provided as a kit by the supplier (Lonza, (Walkersville, Md.). THP-1 human monocyte cells were cultured in RPMI 1640 with 10% FBS and glutamine Cells were cultured in a humidified atmosphere with 5% CO2 at 370 C. For all studies passages 5-14 were used for RAW 264.7 and passages 5-10 were used for hPASMCs. For treatment studies, subconfluent cells plated in multi-well plates were serum starved and if required, pretreated for with inhibitors before stimulating with 2 μg/mL recombinant EMAP II.
(§2) After appropriate treatments, protein lysates were prepared by using RIPA buffer supplemented with phosphatase and protease inhibitors (Thermo Fischer Scientific). Alpha-tubulin was used as a loading control. For nuclear and cytoplasmic fractionation, NE-PER kit from Thermo Fischer Scientific was used. Western blots were performed according to standard methods and quantified using densitometry using Image Studio Lite software from LI-COR Biosciences.
(§3) Primary hPASMCs cells or human THP-1 macrophages were seeded in Nunc Lab-Tek™ II 4-well imaging plates (Thermo Fisher Scientific) chamber well slides and cultured in growth medium. After the serum starvation cells were stimulated with EMAP II. Treated cells were rinsed with PBS and fixed with 4% paraformaldehyde at room temperature for 15 min and permeabilized with 0.1% Triton X-100 at room temperature for 10 min After washing with PBS three times, the cells were incubated with EGR1, 1amin, or pSphK1 antibody at 40C overnight. The cells were then rinsed with PBS three times and subsequently incubated with respective secondary antibody conjugated with Alex Fluor 647 and 488 or Phalloidin 488 at room temperature for 1 h. The cells were rinsed with PBS three times and coverslips were mounted with SlowFade Gold Antifade Mountant with DAPI (Thermo Fischer Scientific) and the cells were examined under Olympus microscope with 40× for EGR1 expression and with 60× for pSphK1 water immersion.
Knockdown of endogenous EGR1 was carried out by transfecting with 25 nM final concentration of ON-TARGETplus siRNAs specific for EGR1 or non-targeting control purchased from GE Dharmacon (Lafayette,CO) using Viromer Blue (Lipocalyx) per manufacturer's instructions. Cells were stimulated with EMAP II 48 h post-transfection.
(§4) RAW 264.7 (ATCC) mouse macrophages and HEK-293T (ATCC) cells were cultured in DMEM media with 10% (v/v) fetal bovine serum (FBS) and 2 mM glutamine HEPES buffer and beta-mercaptoethanol were added to the growth medium used for RAW 264.7 macrophages. […]

SphK1 = SphK1 protein western blot in RAW 264.7 macrophages; assay type: cell-based, mouse
Description: RAW 264.7 (ATCC) mouse macrophages and Human Embryonic Kidney (HEK) 293T cells were cultured in DMEM media with 10% fetal bovine serum […] and glutamine HEPES buffer and beta-mercaptoethanol were added to the growth medium used for RAW 264.7 macrophages. […]
After appropriate treatments, protein lysates were prepared by using RIPA buffer supplemented with phosphatase and protease inhibitors (Thermo Fischer Scientific). […] Western blots were performed according to standard methods and quantified using densitometry using Image Studio Lite software from LI-COR Biosciences. […]
(§5) After appropriate treatments, protein lysates were prepared by using RIPA buffer supplemented with phosphatase and protease inhibitors (Thermo Fisher Scientific). […] Western blots were performed according to standard methods and quantified using densitometry using Image Studio Lite software from LI-COR Biosciences.

pSphK1 = pSphK1 immunofluorescence in THP-1 macrophages; assay type: cell-based, human; details: THP1 macrophages; 1 hour EMAP II
Description: Few passages after thawing of THP-1 cell line, cells were seeded in Nunc Lab-Tek™ II 4-well imaging plates and treated with 100 nM Phorbol myristate acetate (InvivoGen, CA) for 3 days allowing THP-1 monocytes to differentiate into macrophages.
as §3, with “immersion. […]” for “immersion.”

pERK1/2 = pERK1/2 western blot time course in RAW 264.7 macrophages; assay type: cell-based, mouse
Description: as §1, §2, §4, §5

pSTAT3 = pSTAT3 levels in SMCs (data not shown); assay type: cell-based, human
S1P = experiment: ELISA for S1P quantification in hPASMC; assay type: cell-based, human; details: SMCs; peaks at 1 hour and 6 hour; normalized against protein
Description: Equal number of hPASMC cells (1,000,000) were plated and serum starved for overnight. Cells were stimulated for in a series of time points and collected the cells. Cells were pelleted out and washed with PBS. After the lysis protein concentration was measured. S1P levels were measured using S1P ELISA kit (MyBioSource, MBS069092) following manufacturer's instructions. S1P levels were normalized against protein levels.

TNF = TNF in SMCs (data not shown); assay type: cell-based, human

B1: EMAP II: 6x-His tagged recombinant EMAP II, cleaved C-terminal peptide of AIMP1 (SEQ ID NO: 2), pro-inflammatory cytokine (protein)
chain: IAGSADSKPIDVSRLDLRIGCIITARKHPDADSLYVEEVDVGEIAPRTVVSGLVNHVPLEQMQNRMVILLCNLKPAKMRGVLSQAMVMCASSPEKIEILAPPNGSVPGDRITFDAFPGEPDKELNPKKKIWEQIQPDLHTNDECVATYKGVPFEVKGKGVCRAQTMSNSGIK
For B1, the “EGR1 expression in whole cell lysates” value (EGR1; 1 to 2 hours following EMAP II) was “significant upregulation”, the “upregulation of nuclear EGR1 expression” value (EGR1; EMAP II 2 μg/mL, at 1 hour) was 2.5 fold and the “nuclear EGR1 expression by immunofluorescence vs control” value (EGR1; EMAP II 1 hour) was “significantly elevated”. For the same molecule, the “protein expression of SphK1 compared to control” value (SphK1; EMAP II treated macrophages) was “about 1.7 times”, the SphK1 protein expression (SphK1; macrophages, EMAP II 6 hours) was “significant overexpression; also recorded: significantly increased” and the “pSphK1 localization to the plasma membrane” value (pSphK1) was “stimulated translocation; also recorded: elevated levels of pSPHK1”. The “earliest time of pERK1/2 activation” value (pERK1/2) was 5 minutes, the “time of pERK1/2 peak” value (pERK1/2) was 1 hour and the “ERK1/2 phosphorylation (pERK1/2 normalized to ERK1/2)” value (pERK1/2; 24-hour time course) was “induced ERK1/2 phosphorylation; also recorded: bi-modal activation; also recorded: bimodal activation”. The “pSTAT3 levels / STAT3 activation” value (pSTAT3) was “does not impact; also recorded: no STAT3 activation”, the “intracellular S1P levels (ELISA)” value (S1P) was “significant bimodal pattern” and the TNF induction (TNF) was “absent”.
